Measured values as given in patent US20240409624A1 (UCB, published 2024).
Each block holds one binder with its values, some of them ahead of it.

Key:
0N3 R tau [1] = biological target: T1, 0N3 R tau (human, UniProt P10636-2 1-352); assay: ELISA, scFv-Ms-Fc titrated about 3 to 10000 ng/ml on coated tau isoform, OD 630 nm
T1 construct: Used as recombinant protein (ELISA), overexpressed in cells (flow cytometry, Western blot, immunofluorescence) and native in iPSC derived neurons; also called 3 R tau (iPSC derived neurons express 0N3 R tau)
T1 sequence (P10636 other isoform, or with tags, fused parts or gaps limits assumed): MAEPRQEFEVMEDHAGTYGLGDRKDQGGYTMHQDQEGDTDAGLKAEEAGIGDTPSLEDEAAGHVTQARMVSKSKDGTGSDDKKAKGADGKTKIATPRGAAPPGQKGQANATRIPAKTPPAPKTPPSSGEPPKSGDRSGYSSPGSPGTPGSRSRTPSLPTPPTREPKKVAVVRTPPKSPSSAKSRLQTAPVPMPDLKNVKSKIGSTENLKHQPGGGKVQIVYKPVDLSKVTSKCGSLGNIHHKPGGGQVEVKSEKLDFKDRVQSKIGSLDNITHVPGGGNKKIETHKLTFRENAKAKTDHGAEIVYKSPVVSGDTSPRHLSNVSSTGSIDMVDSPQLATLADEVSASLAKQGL

1N3 R tau [2] = biological target: T2, 1N3 R tau (human, UniProt P10636-4 1-381); assay: as above
T2 construct: One of the six recombinantly expressed tau isoforms
T2 sequence (P10636 other isoform, or with tags, fused parts or gaps limits assumed): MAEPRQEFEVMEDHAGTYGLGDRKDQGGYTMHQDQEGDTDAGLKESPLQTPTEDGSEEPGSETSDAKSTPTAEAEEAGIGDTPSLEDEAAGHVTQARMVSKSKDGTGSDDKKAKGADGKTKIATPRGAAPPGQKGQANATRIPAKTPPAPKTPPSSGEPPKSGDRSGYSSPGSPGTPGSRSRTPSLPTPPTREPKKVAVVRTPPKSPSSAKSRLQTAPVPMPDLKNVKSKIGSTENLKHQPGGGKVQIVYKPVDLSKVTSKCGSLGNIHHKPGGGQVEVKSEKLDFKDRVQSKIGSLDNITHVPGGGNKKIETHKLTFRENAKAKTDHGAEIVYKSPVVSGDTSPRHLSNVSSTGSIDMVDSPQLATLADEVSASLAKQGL

2N3 R tau [3] = biological target: T3, 2N3 R tau (human, UniProt P10636-5 1-410); assay: as above
T3 construct: One of the six recombinantly expressed tau isoforms
T3 sequence (P10636 other isoform, or with tags, fused parts or gaps limits assumed): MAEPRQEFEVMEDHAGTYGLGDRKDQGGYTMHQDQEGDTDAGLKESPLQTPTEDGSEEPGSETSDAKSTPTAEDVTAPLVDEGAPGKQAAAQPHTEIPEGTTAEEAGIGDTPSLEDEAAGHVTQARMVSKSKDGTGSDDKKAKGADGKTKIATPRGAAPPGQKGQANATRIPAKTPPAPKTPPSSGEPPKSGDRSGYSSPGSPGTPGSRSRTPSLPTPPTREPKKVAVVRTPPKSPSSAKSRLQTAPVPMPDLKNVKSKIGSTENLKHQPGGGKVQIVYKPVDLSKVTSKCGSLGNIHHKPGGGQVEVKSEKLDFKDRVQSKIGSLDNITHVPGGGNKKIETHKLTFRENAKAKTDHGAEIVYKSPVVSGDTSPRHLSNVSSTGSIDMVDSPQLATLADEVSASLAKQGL

0N4 R tau = biological target: T4, 0N4 R tau (human, UniProt P10636-6 1-383); assay: flow cytometry, scFv-Ms-Fc titrated about 3 to 10000 ng/ml on cells transfected with the tau isoform, mean fluorescence of transfected cells
T4 construct: Used as recombinant protein (ELISA), overexpressed in cells and native in 10+16 MAPT mutant iPSC derived neurons; also called unmutated 0N4 R tau; 4 R tau (10+16 MAPT mutant neurons express 0N4 R tau)
T4 sequence (P10636 other isoform, or with tags, fused parts or gaps limits assumed, form in doubt): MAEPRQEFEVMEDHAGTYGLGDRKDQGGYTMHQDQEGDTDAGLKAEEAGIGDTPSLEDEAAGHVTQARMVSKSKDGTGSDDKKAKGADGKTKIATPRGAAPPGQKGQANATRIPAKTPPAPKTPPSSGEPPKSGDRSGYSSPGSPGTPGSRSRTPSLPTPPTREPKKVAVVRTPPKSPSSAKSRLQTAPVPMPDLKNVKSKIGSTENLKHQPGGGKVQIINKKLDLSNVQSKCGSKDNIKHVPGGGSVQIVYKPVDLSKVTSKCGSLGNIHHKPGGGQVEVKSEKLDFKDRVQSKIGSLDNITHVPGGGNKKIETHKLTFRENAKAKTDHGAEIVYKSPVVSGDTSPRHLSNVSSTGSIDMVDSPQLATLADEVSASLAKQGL

1N4 R tau [4] = biological target: T5, 1N4 R tau (human, UniProt P10636-7 1-412); assay: as above
T5 construct: One of the six recombinantly expressed tau isoforms
T5 sequence (P10636 other isoform, or with tags, fused parts or gaps limits assumed): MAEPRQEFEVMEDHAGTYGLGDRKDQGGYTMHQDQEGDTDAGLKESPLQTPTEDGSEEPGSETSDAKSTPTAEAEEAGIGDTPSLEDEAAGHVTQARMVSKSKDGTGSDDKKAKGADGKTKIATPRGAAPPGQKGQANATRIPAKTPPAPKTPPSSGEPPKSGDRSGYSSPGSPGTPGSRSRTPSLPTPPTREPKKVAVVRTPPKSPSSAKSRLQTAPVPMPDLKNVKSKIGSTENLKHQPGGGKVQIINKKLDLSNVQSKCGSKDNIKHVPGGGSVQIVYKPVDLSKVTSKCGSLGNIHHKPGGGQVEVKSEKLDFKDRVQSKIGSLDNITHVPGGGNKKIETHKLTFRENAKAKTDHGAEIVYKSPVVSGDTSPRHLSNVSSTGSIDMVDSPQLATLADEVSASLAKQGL

2N4 R tau [5] = biological target: T6, 2N4 R tau (human, UniProt P10636 2-758); assay: as above
T6 construct: also called largest human isoform of tau
T6 sequence (P10636 other isoform, or with tags, fused parts or gaps limits assumed): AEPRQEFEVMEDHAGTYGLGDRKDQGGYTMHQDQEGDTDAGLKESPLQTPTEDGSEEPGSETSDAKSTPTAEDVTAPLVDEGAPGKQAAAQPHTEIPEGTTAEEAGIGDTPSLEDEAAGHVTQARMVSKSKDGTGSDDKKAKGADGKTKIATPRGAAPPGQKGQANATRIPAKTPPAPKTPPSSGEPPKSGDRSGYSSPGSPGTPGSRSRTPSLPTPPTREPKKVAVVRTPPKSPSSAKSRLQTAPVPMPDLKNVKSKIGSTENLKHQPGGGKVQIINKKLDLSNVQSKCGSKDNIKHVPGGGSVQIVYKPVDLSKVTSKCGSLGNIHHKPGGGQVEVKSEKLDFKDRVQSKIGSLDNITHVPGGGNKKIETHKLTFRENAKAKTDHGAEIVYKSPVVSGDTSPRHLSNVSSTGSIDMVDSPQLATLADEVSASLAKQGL

2N4 R tau [6] = biological target: T6, 2N4 R tau; assay: ELISA, antibody titrated about 3 to 10000 ng/ml on tau isoform coated directly onto the plate, OD 630 nm
0N3 R tau [7] = biological target: T1, 0N3 R tau; assay: flow cytometry, antibody titrated about 3 to 10000 ng/ml on cells with intracellularly expressed tau isoform, geomean AF647 of transfected cells
1N3 R tau [8] = biological target: T2, 1N3 R tau; assay: as above
2N3 R tau [9] = biological target: T3, 2N3 R tau; assay: as above
1N4 R tau [10] = biological target: T5, 1N4 R tau; assay: as above
1N4 R tau [11] = biological target: T5, 1N4 R tau; assay: Western blot of lysates of cells overexpressing a single tau isoform, probed with the mouse IgG format
2N4 R tau [12] = biological target: T6, 2N4 R tau; assay: as above
[13] = biological target: T7, 0N4 R tau P301 mutated to alanine (human, UniProt P10636 1-758); assay: flow cytometry on fixed, permeabilised Expi293 cells expressing the mutant, 10 µg/ml VR7082
T7 construct: also called P301A
T7 sequence (P10636 other isoform, or with tags, fused parts or gaps limits assumed, stated change not applied): as the sequence (P10636 other isoform, or with tags, fused parts or gaps limits assumed, form in doubt) above, with P243A counted along it
Experimental: (§1) Upon receipt of the constructs, single constructs were transiently transfected into Expi293 cells (Thermo-Fisher) according to the instructions from the manufacturer. The cells were incubated at 38° C., shaking at 220 RPM, in a humidified 5% CO2 environment. Following a 48 hour incubation, the cells were harvested via centrifugation at 350 G(av) for 10 minutes. The cells were fixed and permeabilized with Invitrogens Fix and Perm kit, according to the instructions from the manufacturers. […] The cells were incubated on ice for 30 minutes before being washed in PBS+1% BSA and resuspended in 50 μl/well.
(§2) The cells were run on an IQue3 and tau containing cells were gated via the alexa-488 fluorescence from HT7 and tau binding assessed via alexa-647 staining. The data was normalised and expressed as a percentage of the binding signal observed for not-mutated tau.

[14] = biological target: T8, 0N4 R tau G302 mutated to alanine (human, UniProt P10636 1-758); assay: as above
T8 construct: also called G302A
T8 sequence (P10636 other isoform, or with tags, fused parts or gaps limits assumed, stated change not applied): as the sequence (P10636 other isoform, or with tags, fused parts or gaps limits assumed, form in doubt) above, with G244A counted along it
Experimental: as §1, §2

0N3 R tau [15] = biological target: T1, 0N3 R tau; assay: ELISA, antibody titrated about 3 to 10000 ng/ml on tau isoform coated directly onto the plate, OD 630 nm
1N3 R tau [16] = biological target: T2, 1N3 R tau; assay: as above
2N3 R tau [17] = biological target: T3, 2N3 R tau; assay: as above
1N4 R tau [18] = biological target: T5, 1N4 R tau; assay: as above
2N4 R tau [19] = biological target: T6, 2N4 R tau; assay: as above; remark: listed apart in the source
0N3 R tau [20] = biological target: T1, 0N3 R tau; assay: Western blot of lysates of cells overexpressing a single tau isoform, probed with the mouse IgG format
1N3 R tau [21] = biological target: T2, 1N3 R tau; assay: as above
2N3 R tau [22] = biological target: T3, 2N3 R tau; assay: as above
1N4 R tau [23] = biological target: T5, 1N4 R tau; assay: as above; remark: listed apart in the source
2N4 R tau [24] = biological target: T6, 2N4 R tau; assay: as above; remark: listed apart in the source

B1: VR7082 scFv-Ms-Fc (Fc fusion)
scFv: MAQSVEESGGRLVTPGTPLTLTCTVSGIDLSNYAMIWVRQAPGEGLEYIGIISSTGNTFYATWAKGRFTISKTSTTVDLKITSPTAEDTATYFCARDTNSDSHYGWEAFNIWGPGTLVTVSSGGGGSGGGGSGGGGSGGGGSAVVLTQTPASVEAAVGGTVSINCQASEDIESYLAWYQQKPGQRPKLLIYRASTLASGVSSRFKGSGSGTEYTLTISGVECADAATYYCQEGYSIHVDNVFGGGTEVVVK
notes: also called scFv mouse Fc conversion of VR7082; not shown: mouse Fc
binding result (0N3 R tau [1]): no binding (tested: 10000 ng/ml)
binding result (1N3 R tau [2]): no binding (tested: 10000 ng/ml)
binding result (2N3 R tau [3]): no binding (tested: 10000 ng/ml)
EC50 (read off the curve) (0N4 R tau): ~0.6 µg/mL
EC50 (read off the curve) (1N4 R tau [4]): ~0.8 µg/mL
EC50 (read off the curve) (2N4 R tau [5]): ~0.9 µg/mL

B4: VR7082 rabbit IgG (antibody, V domains shown)
VH: QSVEESGGRLVTPGTPLTLTCTVSGIDLSNYAMIWVRQAPGEGLEYIGIISSTGNTFYATWAKGRFTISKTSTTVDLKITSPTAEDTATYFCARDTNSDSHYGWEAFNIWGPGTLVTVSS
VL: AVVLTQTPASVEAAVGGTVSINCQASEDIESYLAWYQQKPGQRPKLLIYRASTLASGVSSRFKGSGSGTEYTLTISGVECADAATYYCQEGYSIHVDNVFGGGTEVVVK
notes: Cloned and tested as full-length rabbit IgG (kappa light chain); also called clone 3; VR7082-RbIgG
binding result [13]: binds
binding result [14]: binds
binding result (0N3 R tau [15]): no binding (tested: 10000 ng/ml)
binding result (1N3 R tau [16]): no binding (tested: 10000 ng/ml)
binding result (2N3 R tau [17]): no binding (tested: 10000 ng/ml)
binding result (1N4 R tau [18]): binds
binding result (2N4 R tau [19]): binds

More lines, now with the values ahead:

binding result (2N4 R tau [6]): no binding (tested: 10000 ng/ml)
EC50 (read off the curve) (0N3 R tau [7]): ~0.7 µg/mL
EC50 (read off the curve) (1N3 R tau [8]): ~1 µg/mL
EC50 (read off the curve) (2N3 R tau [9]): ~0.9 µg/mL
binding result (1N4 R tau [10]): no binding (tested: 10000 ng/ml)
B2: VR7081 rabbit IgG (antibody, V domains shown)
VH: QSLEESGGRLVTPGTPLTLTCTVSGFSLSNYAMIWVRQAPGGGLEWIGTMGTNGRTYYASWAKGRFTISKTSTTMDLSMTSLTAEDTATYFCARDAGITYSTYYFNIWGPGTLVTVSS
VL: AQVLTQTPASVSAAVGGTVSISCQSSPSVLNTNDLSWFQQKPGQPPKVLIYGASTLASGVPSRFKGSGSGTQFTLTISDVQCDDAATYYCAGGYDVNIDIYGFGGGTEVVVK
notes: Cloned and tested as full-length rabbit IgG (kappa light chain); also called clone 14; 3 R-specific antibody

binding result (1N4 R tau [11]): no binding
binding result (2N4 R tau [12]): no binding
B3: VR7081 formatted as Mouse IgG (antibody, V domains shown)
VH: B2 VH
VL: B2 VL
notes: also called VR7081 mouse chimeric antibody

binding result (0N3 R tau [20]): no binding
binding result (1N3 R tau [21]): no binding
binding result (2N3 R tau [22]): no binding
binding result (1N4 R tau [23]): binds
binding result (2N4 R tau [24]): binds
B5: VR7082 formatted as Mouse IgG (antibody, V domains shown)
VH: B4 VH
VL: B4 VL
notes: also called VR7082 mouse chimeric antibody
